Assay in all cases: cross-linking; 1 mM BMH (cysteine-specific) added to living transfected HEK293T cells in PBS/5 mM EDTA, 1 hr at room temperature in the dark, stopped with DTT; lysates on 3-8% Tris-Acetate gels, western blot with anti-NC antibody
On the technique in general: A western blot detects proteins with antibodies after separation by electrophoresis.

The target in test [1] is CANC (N-terminally 3xHA-tagged CANC Gag fragment with the C-terminal SP2-p6 extension, from pCANC) (HIV-1 NL4-3).
Test [2] deals with GCN4pAA-SP1-NC (HIV-1 NL4-3).
The target in test [3] is GCN4pII-SP1-NC (HIV-1 NL4-3).
In test [4] the target is ccHex2-SP1-NC (HIV-1 NL4-3).

Bounds are passed on as bounds.

The text below walks through data of paper PMC9908077.

On to “CANC (N-terminally 3xHA-tagged CANC Gag fragment with the C-terminal SP2-p6 extension, from pCANC) (domain or fragment)”, for which the stoichiometry N in test [1] lay in the range of 8 to 10.

Turning to GCN4pAA-SP1-NC, in test [2], the stoichiometry N is less than 6.

As for GCN4pII-SP1-NC, in test [3], the stoichiometry N was less than 6. For the substance ccHex2-SP1-NC, the stoichiometry N in test [4] was less than 6.

For orientation: stoichiometry N means the number of molecules, sites or subunits per partner or assembly.
